Consider 6 molecules from article PMC4554459, “Paracoccus denitrificans possesses two BioR homologs having a role in regulation of biotin metabolism”.

Data set [1] has as its target T1, BioR2 (Paracoccus denitrificans PD1222, UniProt A1B662 1-221).
T1 sequence: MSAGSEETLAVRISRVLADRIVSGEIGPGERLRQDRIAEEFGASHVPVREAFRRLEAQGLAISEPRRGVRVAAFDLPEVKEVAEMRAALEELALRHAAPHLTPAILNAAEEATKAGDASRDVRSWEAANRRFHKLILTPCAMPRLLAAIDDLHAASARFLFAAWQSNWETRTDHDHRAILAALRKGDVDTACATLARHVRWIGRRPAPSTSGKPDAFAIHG
Nature of the data set: EMSA; ~0.2 pmol DIG-labeled probe with BioR (10-20 pmol BioR2 in 15 uL, Fig. 6) in Roche binding buffer, 15 min, room temperature; native 7% PAGE; salt and pH of binding buffer not stated (protein in PBS pH 7.4, 10% glycerol). The following applies: protein: recombinant; tags: 6xHis (pET28a); chain copies: 2; label: digoxigenin; blunt. Background: A gel shift assay detects complexes by their altered migration in electrophoresis.

Data set [2] concerns the target T1, BioR2. The data set is described as follows: EMSA; pimeloyl-ACP (no effect); ~0.2 pmol DIG-labeled probe with BioR (10-20 pmol BioR2 in 15 uL, Fig. 6) in Roche binding buffer, 15 min, room temperature; native 7% PAGE; salt and pH of binding buffer not stated (protein in PBS pH 7.4, 10% glycerol). The following applies: protein: recombinant; tags: 6xHis (pET28a); chain copies: 2; label: digoxigenin; blunt.

In data set [3] the target is T1, BioR2. The data set is described as follows: competition; cold probe 10, 20, 50 pmol vs 0.2 pmol DIG-bioBFDAGC; ~0.2 pmol DIG-labeled probe with BioR (10-20 pmol BioR2 in 15 uL, Fig. 6) in Roche binding buffer, 15 min, room temperature; native 7% PAGE; salt and pH of binding buffer not stated (protein in PBS pH 7.4, 10% glycerol). To be noted: protein: recombinant; tags: 6xHis (pET28a); chain copies: 2; blunt.

B1: bioYB_pd1 probe (dsDNA)
DNA 1: GATTCCCGGATAATTATCTATAAACCTAATTGCCAG
DNA 2: CTGGCAATTAGGTTTATAGATAATTATCCGGGAATC
Consider B1, for which the binding result in data set [1] was “binds”.

B2: bioYB_pd2 probe (dsDNA)
DNA 1: CAAAGCCTTCGTAATTATAGATAGACTCGATACCTATC
DNA 2: GATAGGTATCGAGTCTATCTATAATTACGAAGGCTTTG
With B2, the binding result in data set [1] is on record as “binds”.

B3: bioBFDAZ_at (bioB_at) probe (dsDNA)
DNA 1: CTCTCTTGAGGAGGCAAAAATTATCTATAATTTGCCATTTAACGACCTGC
DNA 2: GCAGGTCGTTAAATGGCAAATTATAGATAATTTTTGCCTCCTCAAGAGAG
Regarding B3, in data set [1], the binding result is “binds”.

B4: bioBFDAGC_pd probe (dsDNA)
DNA 1: GGCGCTGACCGTTTTATAGATACTTCCACATGAGGC
DNA 2: GCCTCATGTGGAAGTATCTATAAAACGGTCAGCGCC
As for B4, the binding result in data set [2] is “binds”.

B5: cold bioBFDAGC_pd probe (dsDNA)
DNA 1: GGCGCTGACCGTTTTATAGATACTTCCACATGAGGC
DNA 2: GCCTCATGTGGAAGTATCTATAAAACGGTCAGCGCC
B5: in data set [3], the binding result is on record as “binds”.

B6: bioR1_pd probe (dsDNA)
DNA 1: GGTGCAGCATGAATTATCTATAATTCATGAAACACG
DNA 2: CGTGTTTCATGAATTATAGATAATTCATGCTGCACC
In the case of B6, the binding result in data set [1] is reported as “binds”.
